Patent publication US20150133308A1 (KOREA ADVANCED INSTITUTE OF SCIENCE AND TECHNOLOGY, published 2015)

B1: r-B10 (designed binder)
chain: ETITVSTPIKQIFPDDAFAETIKANLKKKSVTDAVTQNELNSIDQIIANNSDIKSVQGIQYLPNVRYLALGGNKLHDISALKELTNLTYLVLDPNQLQSLPNGVFDKLTNLKELSLWTNQLQSLPDGVFDKLTNLTYLNLAHNQLQSLPKGVFDKLTNLTELDLSYNQLQSLPEGVFDKLTQLKDLRLYQNQLKSVPDGVFDRLTSLQYIWLHDNPWDCTCPGIRYLSEWINKHSGVVRNSAGSVAPDSAKCSGSGKPVRSIICPT
notes: on phage in the ELISA
B2: r-F7 (designed binder)
chain: B1 chain
notes: on phage in the ELISA

Molecular target: T1, human interleukin-6 (human, UniProt P05231 30-212)
T1 construct: also called hIL-6; IL-6
Experiment: phage ELISA, 96-well plate coated with IL-6 and BSA

Binder	OD450 on IL-6 relative to BSA [fold]
B1	≥ 10
B2	≥ 10
